Test results taken from patent publication US5795718, “Detection of complementary nucleotide sequences” (Boehringer Mannheim Corporation).

Tests used:
[1] = target: T1, Nuclease P1 (UniProt P24289 P24289:1-270); assay: cleavage_in_vitro; almost 5-fold complementation increase; 20 mM Na acetate pH 5.3, 4 mM Mg acetate, 37 C, 16.5 min; details: tags: Bethesda Research Laboratories
Procedure: ED4-$T20$ was incubated at 37° C. for 16.5 minutes with various amounts of nuclease, P1 (Bethesda Research Laboratories), in 20 mM Na acetate pH 5.3, 4 mM Mg acetate. At the end of the incubation period, EA and the substrate, CPRG, were added in 150 mM Na phosphate, pH 7.2, 400 mM NaCl, 10 mM EGTA, 0.05% Tween 20 and 10 mM methionine. The rate of product formation was measured at 574 nm in mAU/min. The results (FIG. 1) indicate that the complementation activity of ED4-$T20$ can be increased by digestion of the conjugate with nuclease. An almost 5-fold increase in activity is seen between the use of no nuclease and highest concentration […] conditions.

[2] = target: T1, Nuclease P1; assay: cleavage_in_vitro; 183.54 to 467.93 mAU/min after digestion; 20 mM Na acetate pH 5.3, 4 mM Mg acetate, 37 C; details: tags: Bethesda Research Laboratories
[3] = target: T2, BamHI (UniProt P23940 P23940:1-213); assay: cleavage_in_vitro; complementation rate 47.16 to 114.07 mAU/min after BamHI; 37 C, 40 min; details: chain copies: 2; 24 bp duplex within circular ssDNA
T2 sequence: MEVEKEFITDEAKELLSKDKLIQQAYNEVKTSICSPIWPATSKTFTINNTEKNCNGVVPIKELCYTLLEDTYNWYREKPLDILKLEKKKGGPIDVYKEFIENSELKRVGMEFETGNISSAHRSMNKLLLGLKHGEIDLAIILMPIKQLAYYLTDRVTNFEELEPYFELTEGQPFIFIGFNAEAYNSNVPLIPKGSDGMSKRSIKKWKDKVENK
Excerpt: Complementation Activity of ED4-BP-1 Before and After Hybridization To Target Nucleic Acid In order to determine whether an ED-nucleic acid conjugate would be useful as a probe for the complementation activity detection of specific nucleic acid sequences, a conjugate was made of ED4 and BP-1. BP-1 is a single-stranded DNA oligonucleotide 24 bases long (SEQ ID NO:1, FIG. 2). The BP-1 sequence is complementary to the multiple cloning site region of the single-stranded DNA from the bacteriophage M13 mp18 (SEQ ID NO:2, FIG. 3). The viral DNA which is about 7250 bases in length was used as a model target nucleic acid. 2.4×10^-10 mol of ED4-BP-1 conjugate was incubated with and without 2.4×10^-9 mol of M13 mp18 DNA at 55° C. for 10 minutes. EA (20 U/test) and CPRG (2.0 mg/ml final) were then added and the mixture incubated at 37° C. for 4 minutes. The rate of increase in A$574$ was measured per minute between 4 and 6 minutes. The rates of complementation were 80.73 and 47.16 mAU/min without and with target M13 DNA mp18 DNA, respectively. Therefore complementation was reduced approximately 42% (FIG. 4) by hybridization with the target nucleic acid.
ED4-BP-1 was hybridized to M13 mp18 for 10 min at 55° C. […] The complementation efficiency of the ED4-BP-1/M13 mp18 complex before and after digestion with Bam HI was measured. The rate of increase in A574 was measured per minute as described above. […]

T1 sequence (P24289 whole entry, one chain of several): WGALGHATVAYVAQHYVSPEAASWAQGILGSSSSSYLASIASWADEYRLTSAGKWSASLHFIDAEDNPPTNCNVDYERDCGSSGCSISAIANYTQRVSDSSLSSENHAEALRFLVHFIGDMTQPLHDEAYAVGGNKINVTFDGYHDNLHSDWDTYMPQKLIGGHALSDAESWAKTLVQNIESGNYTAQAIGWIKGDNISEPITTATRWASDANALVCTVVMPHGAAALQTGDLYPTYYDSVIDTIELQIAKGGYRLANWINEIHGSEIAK

Binder: TTTTTTTTTTTTTTTTTTTT (ssDNA, 5' amine linker SMCC-conjugated to ED4 peptide) [ED4-T20]
- activity [1]: ~5 fold

Binder: GAGGATCCCCGGGTACCGAGCTCG (ssDNA, 5' amine linker SMCC-conjugated to ED4 peptide) [ED4-BP-1]
- activity [2]: ~2.5 fold

B1: ED4-BP-1/M13 mp18 hybrid (dsDNA)
DNA 1: GAGGATCCCCGGGTACCGAGCTCG
DNA 2: TGATTACGAATTCGAGCTCGGTACCCGGGGATCCTCTAGAGTCGA
modifications: 5' amine linker (3 or 6 carbons) SMCC-conjugated to ED4 peptide on BP-1
- activity [3]: 2.4 fold
